We go through eight molecules from patent US20220275067A1 (PROTHENA BIOSCIENCES, published 2022).

Positions count from the first letter of the chain named. Where no end group is shown, it is not given here. The star is where a group is joined. Biotin = O=C1N[C@H]2[C@H](CS[C@H]2CCCCC(=O)*)N1

Broadly, the Kd is the equilibrium constant for the complex coming apart. One may read the koff as a measure of how fast the partners let go of each other. By kon is commonly meant the rate constant with which the complex forms.

Assay [1] addresses pHrodo-labeled tau P301L soluble oligomer, P10636. The assay is described as follows: cell-based or functional assay.
For assay [2], the target named is T1, recombinant human 4R0N tau (human, UniProt P10636 2-758).
T1 construct: also called recombinant 4R0N human tau; P10636-6
T1 sequence (P10636 other isoform, or with tags, fused parts or gaps limits assumed): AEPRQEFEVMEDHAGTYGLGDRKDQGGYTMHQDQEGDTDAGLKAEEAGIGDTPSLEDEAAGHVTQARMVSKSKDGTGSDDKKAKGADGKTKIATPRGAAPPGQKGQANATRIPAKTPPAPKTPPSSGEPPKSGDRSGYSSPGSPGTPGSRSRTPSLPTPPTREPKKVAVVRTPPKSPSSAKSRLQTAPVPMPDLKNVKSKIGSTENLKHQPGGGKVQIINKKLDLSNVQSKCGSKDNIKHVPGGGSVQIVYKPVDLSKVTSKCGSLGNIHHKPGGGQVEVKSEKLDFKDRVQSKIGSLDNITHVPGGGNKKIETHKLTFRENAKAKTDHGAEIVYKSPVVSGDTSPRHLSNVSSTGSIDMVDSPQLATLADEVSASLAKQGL
The assay is described as follows: SPR Biacore; antibody captured by anti-mouse antibody; tau as analyte; global 1:1 fit. The protocol:
Surface plasmon resonance (SPR) analysis using Biacore was performed by immobilizing an anti-mouse (GE Lifesciences) antibody to a CM3 chip with EDC/NHS. Antibodies were then captured to the anti-mouse surface to equivalent levels. Regeneration was performed with 2 30 s injections of 10 mM Glycine pH 1.7. Various concentrations ranging from 500 to 0.122 nM, diluted in […] dilutions, of recombinant human 4R0N tau were flowed over the sensor for a 150s association phase and 300 s dissociation phase. Data was blank subtracted to both an irrelevant sensor not containing test antibody to account for irrelevant binding to the prepared sensor surface, and to the mobile phase vehicle to account for the dissociation of test antibody from the anti-mouse capture. Data was then analyzed with onboard evaluation software using a global 1:1 fit.
Background: In SPR one partner is held on a chip, and binding of the other changes the refractive index at the surface.

Assay [3] has as its target T2, human tau oligomers (human, UniProt P10636-6 2-383, limits assumed). The assay is described as follows: cell-based or functional assay.
Assay [4] deals with T2, human tau oligomers. The assay is described as follows: cell-based or functional assay. The source holds these as a separate data set.
In assay [5] the target is T3, biotinylated 15 amino acid tau peptide, residues 383-397 (human).
T3 peptide: Biotin-KAKTDHGAEIVYKSP
The assay is described as follows: ELISA, biotinylated peptide on streptavidin plate. The protocol: (§1) Peptides contained 15 amino acids, with a 5 amino acid overlap. To enable binding to a streptavidin surface, peptides also contained an N-terminal biotin. Peptides were incubated on a streptavidin-coated plate, and the plate was blocked with 1% BSA in 1× PBS. After washing, antibodies were incubated on the plates for 1 hour at room temperature and washed. Plates were then coated with goat anti-mouse horseradish peroxidase (HRP), and washed. Plates were developed with OPD, and absorbance was read at 490 nm. […]
Background: An ELISA detects its analyte on a solid surface through an enzyme-linked reagent.

The target in assay [6] is T4, biotinylated 15 amino acid tau peptide, residues 302-316 (human).
T4 peptide: Biotin-GGGSVQIVYKPVDLS
In words: ELISA, biotinylated peptide on streptavidin plate. The protocol:
as §1

T2 sequence (P10636 other isoform, or with tags, fused parts or gaps limits assumed): as above
Sequence of pHrodo-labeled tau P301L soluble oligomer, P10636 (P10636 other isoform, or with tags, fused parts or gaps P301L P301L): as the sequence (P10636 other isoform, or with tags, fused parts or gaps limits assumed) above

B1: mouse 10C12 antibody (antibody, mouse IgG2a, V domains shown)
VH: EVQLQQSGAELVRPGASVKLSCTASGFNIKDDYMNWVKQRPERGLEWIGWIDPENGDTEYASKFQGKATMTADTSSNTAYLQFSSLTSEDTAVYYCTTSNGWGQGTLVTVST
VL: DIVMTQAAFSNPVTLGTSASISCRSSKSLLHSNGITYLYWYLQKPGQSPQLLIYQMSNLASGVPDRFSSSGSGTDFTLRISRVEAEDVGVYYCAQNLELPLTFGAGTKLELK
modifications: here or on the partner: pHrodo label
In assay [1], B1 yielded an internalized pHrodo-tau in B103 cells (FACS), antibody at 0.061 µg/mL (% of maximum signal) of 86.7; an internalized pHrodo-tau in B103 cells (FACS), antibody at 0.244 µg/mL (% of maximum signal) of 9.09; an internalized pHrodo-tau in B103 cells (FACS), antibody at 0.98 µg/mL (% of maximum signal) of 90.5; an internalized pHrodo-tau in B103 cells (FACS), antibody at 3.9 µg/mL (% of maximum signal) of 55.2. In assay [1], the internalized pHrodo-tau in B103 cells (FACS), antibody at 15.625 µg/mL (% of maximum signal) was 38.9 and the internalized pHrodo-tau in B103 cells (FACS), antibody at 62.5 µg/mL (% of maximum signal) worked out at 34.5.

B2: mouse 10C12 antibody (antibody, mouse IgG2a, V domains shown)
VH: B1 VH
VL: B1 VL
notes: also called m10C12
Regarding B2, in assay [2], the dissociation constant (Kd) amounted to 0.375 nM, the koff worked out at 0.00245 s⁻¹ and the kon came to 6.53e+06 M⁻¹ s⁻¹. Further, in the assay with human tau oligomers [3], the “LDH released by primary neurons with tau oligomers, antibody at 0.2 molar equivs” value is 140 % of control; the “LDH released by primary neurons with tau oligomers, antibody at 0.33 molar equivs” value was 129 % of control; the “LDH released by primary neurons with tau oligomers, antibody at 1 molar equivs” value is 109 % of control; the “LDH released by primary neurons with tau oligomers, antibody at 3 molar equivs” value was 101 % of control. Further, in the assay with human tau oligomers [3], the “LDH released by primary neurons with tau oligomers, antibody at 5 molar equivs” value is 95.1 % of control. Further, in the assay with human tau oligomers [4], the “MTT viability of primary neurons with tau oligomers, antibody at 0.2 molar equivs” value was 47.1 % of control; the “MTT viability of primary neurons with tau oligomers, antibody at 0.33 molar equivs” value was 51.3 % of control; the “MTT viability of primary neurons with tau oligomers, antibody at 1 molar equivs” value was 56.4 % of control; the “MTT viability of primary neurons with tau oligomers, antibody at 3 molar equivs” value is 69.2 % of control. Further, the “MTT viability of primary neurons with tau oligomers, antibody at 5 molar equivs” value with human tau oligomers [4] was 86.8 % of control. The binding result in assay [5] is on record as “binds”. For the same molecule, the binding result in assay [6] is listed as “binds”.

B3: mouse 17C12 antibody (antibody, mouse IgG2a, V domains shown)
VH: B1 VH with E1K, V2I, G26A, E59K, F83L, T112A
VL: DVVMTQTPLTLSVTIGQPASISCTSSQSLLHSNRKTYLHWLLQRPGQSPKLLIYLVSKLESGVPDRFSGSGSGTDFTLKISRVEAEDLGVYYCLQTTHFPRTFGGGTKLEIK
notes: also called m17C12
For B3, in assay [2], the Kd is 0.482 nM, the koff came out at 0.00194 s⁻¹ and the on-rate constant (kon) was 4.03e+06 M⁻¹ s⁻¹. Also, the binding result in assay [5] is on record as “binds”. Further, the binding result in assay [6] is listed as “binds”.

B4: mouse 2D11 antibody (antibody, mouse IgG2a, V domains shown)
VH: B1 VH
VL: B1 VL
modifications: here or on the partner: pHrodo label
As for B4, in assay [1], the internalized pHrodo-tau in B103 cells (FACS), antibody at 0.061 µg/mL (% of maximum signal) came out at 71.5; the internalized pHrodo-tau in B103 cells (FACS), antibody at 0.244 µg/mL (% of maximum signal) is 79.5; the internalized pHrodo-tau in B103 cells (FACS), antibody at 0.98 µg/mL (% of maximum signal) came to 62.7; the internalized pHrodo-tau in B103 cells (FACS), antibody at 3.9 µg/mL (% of maximum signal) came out at 43. In assay [1], the internalized pHrodo-tau in B103 cells (FACS), antibody at 15.625 µg/mL (% of maximum signal) is 28.6 and the internalized pHrodo-tau in B103 cells (FACS), antibody at 62.5 µg/mL (% of maximum signal) was found to be 28.4.

B5: mouse 12C4 antibody (antibody, mouse IgG2a, V domains shown)
VH: B1 VH with K38R, E59A, T91S, T112A
VL: B1 VL
modifications: here or on the partner: pHrodo label
For B5, in assay [1], the internalized pHrodo-tau in B103 cells (FACS), antibody at 0.061 µg/mL (% of maximum signal) was 78.2; the internalized pHrodo-tau in B103 cells (FACS), antibody at 0.244 µg/mL (% of maximum signal) is 78.6; the internalized pHrodo-tau in B103 cells (FACS), antibody at 0.98 µg/mL (% of maximum signal) stood at 69.7; the internalized pHrodo-tau in B103 cells (FACS), antibody at 3.9 µg/mL (% of maximum signal) is 42.6. Also, in assay [1], the internalized pHrodo-tau in B103 cells (FACS), antibody at 15.625 µg/mL (% of maximum signal) amounted to 36.6 and the internalized pHrodo-tau in B103 cells (FACS), antibody at 62.5 µg/mL (% of maximum signal) was 37.3.

B6: mouse 17C12 antibody (antibody, mouse IgG2a, V domains shown)
VH: B1 VH with E1K, V2I, G26A, E59K, F83L, T112A
VL: B3 VL
modifications: here or on the partner: pHrodo label
For the molecule B6, in assay [1], the internalized pHrodo-tau in B103 cells (FACS), antibody at 0.061 µg/mL (% of maximum signal) was determined as 79.8; the internalized pHrodo-tau in B103 cells (FACS), antibody at 0.244 µg/mL (% of maximum signal) came out at 78.6; the internalized pHrodo-tau in B103 cells (FACS), antibody at 0.98 µg/mL (% of maximum signal) came out at 63.9; the internalized pHrodo-tau in B103 cells (FACS), antibody at 3.9 µg/mL (% of maximum signal) stood at 36.8. In assay [1], the internalized pHrodo-tau in B103 cells (FACS), antibody at 15.625 µg/mL (% of maximum signal) was found to be 32.4 and the internalized pHrodo-tau in B103 cells (FACS), antibody at 62.5 µg/mL (% of maximum signal) was determined as 30.6.

B7: mouse 14H3 antibody (antibody, mouse IgG2a, V domains shown)
VH: QVTLKESGPGILQPSQTLSLTCSFSGFSLSTYGMGVGWIRQPSGKGLEWLANIWWDDIKYYNAALKSRLTISKDTSKNQVFLKIASVDTADTATYYCARNVDYWGQGTTLTVSS
VL: DVVMTQTPLSLPVSLGDQASISCRSSQSLVHSNGNTFLHWYLQKPGQSPKLLIYKVSNRFSGVPDRFSGSGSGTDFTLKISRVEAEDLGVYFCSQSTLVPWTFGGGTKLEIK
modifications: here or on the partner: pHrodo label
In assay [1], B7 came in with an internalized pHrodo-tau in B103 cells (FACS), antibody at 0.061 µg/mL (% of maximum signal) of 79.7; an internalized pHrodo-tau in B103 cells (FACS), antibody at 0.244 µg/mL (% of maximum signal) of 66; an internalized pHrodo-tau in B103 cells (FACS), antibody at 0.98 µg/mL (% of maximum signal) of 67.8; an internalized pHrodo-tau in B103 cells (FACS), antibody at 3.9 µg/mL (% of maximum signal) of 63.1. In assay [1], this molecule displayed an internalized pHrodo-tau in B103 cells (FACS), antibody at 15.625 µg/mL (% of maximum signal) of 53.2 and an internalized pHrodo-tau in B103 cells (FACS), antibody at 62.5 µg/mL (% of maximum signal) of 48.4.

B8: mouse 14H3 antibody (antibody, mouse IgG2a, V domains shown)
VH: B7 VH
VL: B7 VL
notes: also called m14H3
Turning to B8, in assay [2], the equilibrium dissociation constant (Kd) was found to be 0.202 nM, the koff came out at 0.00153 s⁻¹ and the kon was determined as 7.6e+06 M⁻¹ s⁻¹. Further, the binding result in assay [5] is given as “binds”. For the same molecule, in assay [6], the binding result is reported as “binds”.
